Results: patent publication US20240226168A1

Target: poliovirus receptor (PVR) (UniProt P15151)
Assay: cell-based or functional assay

frequency of TNFα+ NK cells after A549 spheroid co-culture (isotype control) and restimulation with PVR+ K562 cells: 15%
loss in the IFNγ generation capacity of A549 spheroid-exposed PM21-NK cells: 30%
Sequence: T cell immunoreceptor with Ig and ITIM domains (TIGIT) (from UniProt Q495A1 22-244)
